Measurements reported in US9273093B2, “α4β7 peptide dimer antagonists” (Protagonist Therapeutics, Inc., priority 2012, dated 2016).
Bridges are numbered along the chain shown (N, C = ends). Where no end group is shown, it is not given here. [ ]: non-standard residue; d: D form. NMeR = CN[C@@H](CCCNC(=N)N)C(=O)O; Pen = CC(C)(S)[C@H](N)C(=O)O

Assay: Simulated Intestinal Fluid (SIF) Stability Assay
Format: in vitro ADME
Conditions: compared to SEQ ID NO: 39 with Cys or to monomer subunits
Description: Simulated Intestinal Fluid (SIF) Stability Assay
Studies were carried out in simulated intestinal fluid (SIF) to evaluate gastric stability of the dimer molecules of the instant invention. SIF was prepared by adding 6.8 g of monobasic potassium phosphate and 10.0 g of pancreatin to 1.0 L of water. After dissolution, the pH was adjusted to 6.8 using NaOH. DMSO stocks (2 mM) were first prepared for the test compounds. Aliquots of the DMSO solutions were dosed into 6 individual tubes, each containing 0.5 mL of SIF, which had been pre-warmed to 37° C.
The final test compound concentration was 20 μM. The vials were kept in a benchtop Thermomixer® for the duration of the experiment. At each timepoint (0, 5, 10, 20, 40, and 60 minutes), 1.0 mL of acetonitrile containing 1% formic acid was added to one vial to terminate the reaction. Samples were stored at 4° C. until the end of the experiment. […] Aliquots of the supernatant were removed, diluted 1:1 into distilled water containing internal standard, and analyzed by LCMS/MS. Percent remaining at each timepoint was calculated based on the peak area response ratio of test to compound to internal standard. Time 0 was set to 100%, and all later timepoints were calculated relative to time 0. Half-lives were calculated by fitting to a first-order exponential decay equation using GraphPad. […]

SEQ ID NO: 102: homodimer of monomer subunit with Pen in place of Cys and N-Me-Arg, dimerized at C-termini (K[Pen][NMeR]SDTL[Pen]W; disulfide 2-8 (inferred); also: homodimer dimerized at C-termini)
stability in simulated intestinal fluids (SIF) (in words): increased stability significantly
